Stoichiometry N data for one substance are collected here from article PMC10653388.

This experiment concerns the target endogenous S. cerevisiae TREX complex (S. cerevisiae) (UniProt P17629). Put plainly: negative-stain EM.

What is called stoichiometry N is a count of units in the complex or per binding partner. Turning to “endogenous S. cerevisiae TREX complex, P17629;P53552;P33441;O13539;P53851;Q07478;Q12159;P25555;P38922”, the stoichiometry N is 2.
